Molecular target: recombinant SARS-CoV-2 spike B.1.617.2 with His-tag (SARS-CoV-2), P0DTC2
Assay: BLI

Binder: GTEWLYKVWKAFVDNMS (designed binder, modifications not checked) [stapled peptide pep39]
- Kd: 4.1 µM

Reference: paper PMC10507807, “De novo design of a stapled peptide targeting SARS-CoV-2 spike protein receptor-binding domain” (RSC Medicinal Chemistry, 2023)
